Measured values from the DeepSol protein solubility set.

test: soluble on expression in E. coli; label from the status in PepcDB or PDB records

Soluble on expression in E. coli, soluble:
SLRLPTVFRQMRPVSRVLAPHLTRAYAKDVKFGADARALMLQGVDLLADAVAVTMGPKGRTVIIEQSWGSPKVTKDGVTVAKSIDLKDKYKNIGAKLVQDVANNTNEEAGDGTTTATVLARSIAKEGFEKISKGANPVEIRRGVMLAVDAVIAELKKQSKPVTTPEEIAQVATISANGDKEIGNIISDAMKKVGRKGVITVKDGKTLNDELEIIEGMKFDRGYISPYFINTSKGQKCEFQDAYVLLSEKKISSIQSIVPALEIANAHRKPLVIIAEDVDGEALSTLVLNRLKVGLQVVAVKAPGFGDNRKNQLKDMAIATGGAVFGEEGLTLNLEDVQPHDLGKVGEVIVTKDDAMLLKGKGDKAQIEKRIQEIIEQLDVTTSEYEKEKLNERLAKLSDGVAVLKVGGTSDVEVNEKKDRVTDALNATRAAVEEGIVLGGGCALLRCIPALDSLTPANEDQKIGIEIIKRTLKIPAMTIAKNAGVEGSLIVEKIMQSSSEVGYDAMAGDFVNMVEKGIIDPTKVVRTALLDAAGVASLLTTAEVVVTEIPKEEKDPGMGAMGGMGGGMGGGMF
MAEYLVPKSAVVFEEEIKKSRFITYLQHTEGLEDARAFWAKIKQEHPNARHHCWAAVAGKPTDSLQLGFSDDGEPAGTAGKPMLSALQGSQLGEISAVVVRYYGGILLGTGGLVRAYGNGVQQALKLIESEIKVERTLFKLDCDYGQLRLVQQLCEKYQVEILSQGFQANIHLILGISEKTIEAFSSELTEKSSGRLVIQLLEIGELEHHHHHH
MSLTTIKEIAQKSGYSPATVSRLLNNDPNLSITADTKNKILEIANKLGYWKDHQEKEIKPTIALLYRTNHKEQLQDEYFTSLKQALVETVKQKSMKMKTFYNVKDLIENASLFQGFIGVGAAPIENAELLELHKVLPNGVFVDTNPAPELFDSIRPNLSLTVKNAIDLFIKNDCKTIGFIGGVGPKHDHIQENDPRAVAFAEYMKVRNKDTNYMFVSGPFSVENGYELGKEVVKECEDNLPDAFLIASDTLSVGVLQAFNEENVNVPKDTAILSINNSNVVKYVSPPLSSYNINQQEMIDLALTMLTNLIIQPDRAHIDVNMNTDLVVRKSFVPKGEGHHHHHH
AHHHHHHGSKVEKYAIIFGKNPELGLYELKAFSKRFKLGVRILEIRFYGPNKSFAIIQAKEEIEKKFKWLGGALKLVRIVGEGLDTIENLEYSKLFTVSLYGKEDWKAWRKLGSQVKAVFKRKDSSKFFKPANVYSMPSELILKGFPEVKDVVFLFVDKDRVLVGETIRITNPFELKKLDVERPIVRPTLSIPPRLARIMINLSEVRKGNVLDPFCGTGTILVELLLQGLIAYGSDISQERINDARKNIEWIRKEFRIKQNASLRVCDVRRLKKCFRTRFDAIITEPYMGRPLKTKPTREEAIKIAKQLDRLYYQAFESFSDVLKRNAKVVFVFPAFNLAEGGVYRRNRPWLEELGFKVEYSILDIDEKHRIGRDIYVIRY
MKLILNTPGLYLCKRGECFQIQSENEKREIAATKVDQIMITTHAALTTDAIELALEYNIDIIFLKNTGQPMGRVWHSKLGSISTIRRKQLFLQDSPLGLQLVKEWILEKMDNQIRLLKKLEVNRRDDEKRAIIRDTIEKIEKQKANIMSINNKETVNNVRNMLLGYEGTAGRVYFETLGKLIPEKYAFEARSRNPAKDPFNCMLNYSYGILYSSVEKACIIAGLDPYIGIMHTDNYNKKALVYDMVEMYRGYMDEIVFRLFSTKKVQDDFFDKIEDGYYLNKEGKQLLISEYNKELEVKMNYRGRRIEFANIIQYDCHQIANRILKEDIPC
MAQIVVIGAGLGGLPAAYELRHYLGKAHQVILISEFPQFTFVPGLVQVGLGHIPLDHMQLNVPMLAKRHGFKWVQGKVQKIDPLQKRIYTHETLNYDYLIIASGAELANDLVPGLGIYTHSICTPSHVLEARTAWETFCQQPGDLVVGAAPGTGCFGPAYEYVLLAEADLRRRGIRDQVKITYITPEPYIGHLGIANMAHSQTLTEALMNKRGIATLTNAQIVNISSDHIFLADGQSFGFAYSMILPAFRGAKFVKASGLGNERGFLPVLPTMRHRDYPEIYGVGVSVHLGQINDTQVSIGTPKSGQMTEAMAMVAAHNIAVELGSIAKPLQVPTLEALCFAEYGDTGIAYIAAPVLPDRLTGKRRYSYAIKGIWVNWAKAAFEKYFLAKMRLGVGLPWFEKLGLRLLFGLSMSRPAMAEDIVQPVNVLEHHHHHH
MAKKTSSKGKLPPGPFPLPIIGNLFQLELKNIPKSFTRLAQRFGPVFTLYVGSQRMVVMHGYKAVKEALLDYKDEFSGRGDLPAFHAHRDRGIIFNNGPTWKDIRRFSLTTLRNYGMGKQGNESRIQREAHFLLEALRKTQGQPFDPTFLIGCAPCNVIADILFRKHFDYNDEKFLRLMYLFNENFHLLSTPWLQLYNNFPSFLHYLPGSHRKVIKNVAEVKEYVSERVKEHHQSLDPNCPRDLTDCLLVEMEKEKHSAERLYTMDGITVTVADLFFAGTETTSTTLRYGLLILMKYPEIEEKLHEEIDRVIGPSRIPAIKDRQEMPYMDAVVHEIQRFITLVPSNLPHEATRDTIFRGYLIPKGTVVVPTLDSVLYDNQEFPDPEKFKPEHFLNENGKFKYSDYFKPFSTGKRVCAGEGLARMELFLLLCAILQHFNLKPLVDPKDIDLSPIHIGFGCIPPRYKLCVIPRSHHHH
MKGERLDKVLARLGLGSRKEVARLVRQGKVRVLGQVVKDPGFRVPEGAALEVEGRPLEVRRHLHVLLHKPPGFVTSRTEGPSVYALLQGFPTRDLSPVGRLDKDAEGLLLFTTDGLLLHRLTHPRHKVAKRYLVHLERPVGPKDQEAFREGILLDGKKTLPAELTPLEDPTWAEVVLKEGRFHQIKRMFRARGNRVLRLKRLALGPLELGDLPPGKARPLTEAEEKALYAAVGLGGEDPEDEV
MGHHHHHHHHHHSSGHIEGRHMAAVTLHLRAETKPLEARAALTPTTVKKLIAKGFKIYVEDSPQSTFNINEYRQAGAIIVPAGSWKTAPRDRIIIGLKEMPETDTFPLVHEHIQFAHCYKDQAGWQNVLMRFIKGHGTLYDLEFLENDQGRRVAAFGFYAGFAGAALGVRDWAFKQTHSDDEDLPAVSPYPNEKALVKDVTKDYKEALATGARKPTVLIIGALGRCGSGAIDLLHKVGIPDANILKWDIKETSRGGPFDEIPQADIFINCIYLSKPIAPFTNMEKLNNPNRRLRTVVDVSADTTNPHNPIPIYTVATVFNKPTVLVPTTAGPKLSVISIDHLPSLLPREASEFFSHDLLPSLELLPQRKTAPVWVRAKKLFDRHCARVKRSSRL

Soluble on expression in E. coli, not soluble:
MEASEEVTMVNKGDDGKSGIRYYTTIEELSRAINAGLSLQDRRMSEEEAMEAAEHIINFFGYNDRVIDNMLEPEDRDSFYTMEDIGILQTEREETTLFDGREWRIHYWILNINKIMELANMQVDYKKKITNDEYKIYDEIPDDYWKVVE
MSLDNAMRNIFNGMMTTTSPASFETATRTGVVGGSFSYRTTNVNTNLVSMSFPKASVGCNGIDVFLGSFSMINGDQLVQVARGIAQGAAIYAFNVAVSAICADCAATINDIQNKLQALNKFAKDSCNATYSFLTENVGPPSQFANAVSSGPASMLGTLNGLLPDFGSSMTKSPETVTSQVKAKDPEEFAEKFSGNLFYMSFMDIDKGSMNIGGVTELSGYRLAEQLMSLVGTVIINWDAKGEKAGMEVRPSTMTVSDFIMGPPAGGSIKMLKCSPAPDPASARKSQCLVMSEVTDGGFKGLKDTISDLLIQVQTKAISDVRISDDELRIISYIGIPTILDSLQTFDVPEGYAYIQDISAIAATSLVINMLRQVEAKISAMNIPSESLSGRRQDLTRLSENLTNQVKAAYELTRSQVGNSSDVISAWDDRRLKRKAFMESLRGTGNEGHHHHHH
TKDFEWSSTINAAYQKDEIVELANGKQDDISNAWFIGESINVFYGTASDGLWQESDAAEMAKFNANGHKFEAGMVKPVDQDGNYIIDSNDRIILGNKNPKWVLGWSNTFNYKGLELGIELNGRFGYMVDTGGEGQYGMYNQREISYWTPDNTGADYQKPIYSTAGGDAYSSLLGFKDASFIKIRNISLGYNFNSKALKNIGISSLKLYAQAKNIGNLYSSVDFMDLDLGTTYYNRGFTFGLQVGF
MNPKFRSFFSKNAEIFRFSLSENPEIFRFSRHFSMKSFYDIIEIDEIATFDDVKKAYFRFLRKDNRPIYDSWLREQRLRETQGTIGETIELEYGERDVDEYCRKKIPKKNIFSKKKKRFFRTFSNRPNPRHGNLRVLLVLPLSRNPSLLHHHHHPRHPLKKMSSLDESSTKILVLGDSCVGKTSLCHCIAGGGEPPGGGRSFDSTIGATVVMAWHEYRAGTPEQRTELLELWDIGGMVAHRQAAQVFFEGAVGAILVHDLTNKRSEENLATWLTMLDGKPRGAAPKSSKDPAAVALKVDIESCNIPVLIVGTKADLVPHKGPVSYDRYDGLGNANSAISVWKPRNRRKNSKKPMKIGRKLVVEKEKVKKFGRQYLRRGLGFSFSSARWHKEMTEARNVQKSMKMVIFRLFSMGGRN
MGSDKIHHHHHHMVRLAVVGLGKMGLSHYAMINAHPDVKVEAVCDSTGYVLDVLNKYTGVRTYTDFDVMLRDIELDAVIIATPSRSHGQMVEVALNENLHVFCEKPFCLDITEGERLARIAAERGLVNQVGYHNRFVGAFQEVKRLLDAGAIGAVTHVLAEAYGPVVLKPKGSTWRTQRTEGGGCLYDYAAHPINLVNWYLGAPQSVGGSVLNKIFSKDTEDEVFSTLYYEEGKSVQISVNWSDESYRKMTTKVTIWGTQGRIYADRQECQVYIRDGVNIPAGYQRGWNVRYTTDLTEAVWFYLRGEEYSAQLDYFVRCIEEKEGGGNINSFEEAVITDRVMSMMVADAEKRPPVTSGIAPRQAPGKKFGLLFGGRKAVS
MSNQEPYRIPKRTASDPNQSGSQGSCVRPNQEGNVKKEESVNSAPRRMFTLPSSSSTSGAQVFNPIGKCQVQTNSFKIDITKMPKRLLRLSMETRLCGGKTELNLNDGVQAVAGNLNSQEDFTTQEWSQISNYLRKKNAEFKVKISPNGFVYTNGPNSLSDANRQELPRLVEIATSEVLNTPEYLQFGNQTYAVNEPAVSSPDALSEIRSGFDKSVRLVDGENGSTEIIMTIDNKLAPFHKSTSVLKMICDKFEEIVNPARQHRGSQDRRGDRDRGYRGGRSYGHDNRRRSRSRSPQDRGDRGDRGNHHRDHNEDWDERKVKEVERRLLEEPRALGSIADALKGLIVESVHLSKDVNRNSRIKLNEGKNDEQEISVADYYLKQYNYKLKFPYLPMIVSKRFRSETMFPVELLKIVPGQKISIQKINPNVQSAMTGPNSILPSKHVRIVARILESSLKIASNPYLKTFGIRISKDPIKLEAKILSPAQLSFNKYSIMPKPGSVQFEPSREDKFFKPAKIYEVAVIAFRVVSINLSDFCMKLCDLCRRSGLEIRRETRDWIKIENFNPTSTIELKEQMKRLQQSNCSIIIGITEEKKPEVHDVLKYFEAAVGLQTMQIHSKTAGFIISGNGQTAGNVIKKLNLKCGGINYIVEVPQSFNRTVVCSNNSFVQKKLFDGTQFIGFEMTHGAARTLFDKSNGTFDGEPTIVGCAYSLQKATDLGGFNWFQEQNEYRLKNLGTHIPKCLQYYKESSGSLPEKIVIYRTGAGEGDFDRVQQEITEIRSSFAEVQEGYKPSLVVIVANKTSHLRVFPVEIREGDTAMKQNVRSGTCLDGKITSAGREEFVLISQTALISTAKPTKYTIAANDPKWSKNEVMNLTYILSFAHQVCYQPPAVPHILYAADNLAKRGRNNFIQHKKLGELSKTIQATLTKYSDLNIEMDSKELSGELVEDITKSMNVMAIKARNFWA
MSLKLPDEEFKLALEVARARIKAKDKFSRSDLWFDLEGLRYATHEVVADYRGRRLKGQGVKSIADVSCGVGIQLIFFAKHGIRSVGIDIDPIKIEFAKRNAEKYGVEVEWVVGDALSPEIIEKVDAEVIFSDPARPPEVPERNLEDLLPSPLKIYEAYKHKTDSFIFDLPPQIRREKVPWKGEFEYIDLFGHVNRLTEGHHHHHH
